Reference: paper PMC10057298, “Kinetic Characterization and Catalytic Mechanism of N-Acetylornithine Aminotransferase Encoded by slr1022 Gene from Synechocystis sp. PCC6803” (International Journal of Molecular Sciences, 2023)
Residue numbers refer to the chain shown, from its start. In names and notes the source's numbering stands.

T1: Slr1022 (Synechocystis sp. PCC 6803, UniProt P73133)
T1 construct: gene argD
T1 sequence (P73133 1-429): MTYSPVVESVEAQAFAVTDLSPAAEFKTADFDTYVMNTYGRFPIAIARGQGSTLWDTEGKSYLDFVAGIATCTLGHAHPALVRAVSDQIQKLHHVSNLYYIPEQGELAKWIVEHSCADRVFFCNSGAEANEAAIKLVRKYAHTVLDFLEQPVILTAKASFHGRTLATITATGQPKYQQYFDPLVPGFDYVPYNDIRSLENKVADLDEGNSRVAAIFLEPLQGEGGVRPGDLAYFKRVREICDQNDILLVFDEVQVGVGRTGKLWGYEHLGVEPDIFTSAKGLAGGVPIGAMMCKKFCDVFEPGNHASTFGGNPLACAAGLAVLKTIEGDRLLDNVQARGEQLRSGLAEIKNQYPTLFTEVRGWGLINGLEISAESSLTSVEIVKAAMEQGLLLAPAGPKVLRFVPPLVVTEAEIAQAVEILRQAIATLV

B1: recombinant Slr1022 protein (N-acetylornithine aminotransferase encoded by slr1022 gene from Synechocystis sp. PCC6803) (enzyme, UniProt P73133 1-429, looked up)
chain: T1 sequence (P73133 1-429)
notes: N-acetylornithine aminotransferase (AcOAT) encoded by the slr1022 (argD) gene of Synechocystis sp; PCC6803; monomer printed as 49 kDa; The purified protein carries the cofactor PLP as internal aldimine (absorption at 410 nm); also called AcOAT; wild-type Slr1022; source: E. coli BL21 (DE3), pET28a-slr1022, purified (Ni-NTA)
B2: Slr1022 (Synechocystis sp. PCC 6803 substr. Kazusa; Y39F) (protein)
chain: T1 sequence (P73133 1-429) with Y39F
B3: Slr1022 (Synechocystis sp. PCC 6803 substr. Kazusa; Q254A) (protein)
chain: T1 sequence (P73133 1-429) with Q254A
B4: Slr1022 (Synechocystis sp. PCC 6803 substr. Kazusa; S125A) (protein)
chain: T1 sequence (P73133 1-429) with S125A
B5: Slr1022 (Synechocystis sp. PCC 6803 substr. Kazusa; D251E) (protein)
chain: T1 sequence (P73133 1-429) with D251E
B6: Slr1022 (Synechocystis sp. PCC 6803 substr. Kazusa; A127S) (protein)
chain: T1 sequence (P73133 1-429) with A127S
B7: Slr1022 (Synechocystis sp. PCC 6803 substr. Kazusa; E223S) (protein)
chain: T1 sequence (P73133 1-429) with E223S
B8: Slr1022 (Synechocystis sp. PCC 6803 substr. Kazusa; T308A) (protein)
chain: T1 sequence (P73133 1-429) with T308A
B9: Slr1022 (Synechocystis sp. PCC 6803 substr. Kazusa; E223A) (protein)
chain: T1 sequence (P73133 1-429) with E223A

Key:
[1] = biological target: T1, Slr1022; assay: UV-visible absorption at […] nm (internal aldimine); assay type: binding; conditions: 100 mmol/L Tris-HCl pH 8.5; covalent (Schiff base)
[2] = substrate: NCCCC(=O)O; assay: purified protein; conditions: 0.5 mmol/L α-KG, 0.05 mmol/L PLP, 2 mmol/L Mg2+, 2 mmol/L NADP+, 100 mmol/L Tris-HCl pH 8.5, 25 °C, apparent
[3] = substrate: NCCC[C@H](N)C(=O)O; assay: purified protein; conditions: 0.5 mmol/L α-KG, 0.1 mmol/L PLP, 6 mmol/L NAD+, 100 mmol/L Tris-HCl pH 8.5, 25 °C, apparent
[4] = substrate: O=C(O)CCC(=O)C(=O)O; assay: purified protein; assay type: biochemical, Synechocystis sp. PCC 6803; conditions: 100 mmol/L Orn as amino donor, 0.1 mmol/L PLP, 6 mmol/L NAD+, 100 mmol/L Tris-HCl pH 8.5, 25 °C, apparent
[5] = biological target: the molecule itself; assay: SEC; FPLC, Bio-Rad NGC system, ENrich SEC 650 gel filtration column, mobile phase standard PBS without exogenous PLP; mass calibrated with myoglobin, ovalbumin, bovine serum albumin and gamma-globulin
[6] = substrate: CC(=O)N[C@@H](CCCN)C(=O)O; assay: purified protein; assay type: biochemical, Synechocystis sp. PCC 6803; conditions: saturating α-KG, 0.1 mmol/L PLP, 6 mmol/L NAD+, 100 mmol/L Tris-HCl pH 8.5, 25 °C, apparent

| Molecule | Km [6] [µM] | kcat [6] [s⁻¹] | also measured |
| --- | --- | --- | --- |
| Cc1ncc(COP(=O)(O)O)c(C=O)c1O [PLP] |  |  | UV-visible absorption at 410 nm (internal aldimine) [1]: indicating that the cofactor PLP was bound to Slr1022 in the form of internal aldimine |
| B1 |  |  | Km [2]: 78100 ± 18700 µM; kcat [2]: 0.14 s⁻¹; kcat/Km [2]: 1.8 M⁻¹ s⁻¹; Km [3]: 20900 ± 3500 µM; kcat [3]: 0.16 s⁻¹; kcat/Km [3]: 7.7 M⁻¹ s⁻¹; Km [4]: 130 ± 30 µM; kcat [4]: 0.11 ± 0.01 s⁻¹; kcat/Km [4]: 846 M⁻¹ s⁻¹; stoichiometry N [5]: 2 |
| B2 | 470 ± 50 | 0.17 ± 0.01 |  |
| B3 | 110 ± 10 | 0.02 ± 0.0005 |  |
| B4 | 230 ± 20 | 0.32 ± 0.01 |  |
| B5 | 1390 ± 220 | 0.47 ± 0.03 |  |
| B6 | 590 ± 120 | 0.21 ± 0.01 |  |
| B7 | 8810 ± 2960 | 3.67 ± 0.43 |  |
| B8 | 140 ± 20 | 0.007 ± 0.002 |  |
| B9 | 7770 ± 1760 | 1.17 ± 0.09 |  |
